Assay results as given in patent publication US10947523B2, “Biotechnological production of L-tryptophan” (Technische Universitaet Hamburg, priority 2017, dated 2021).
Numbering of substitutions follows the chain as printed. Numbers in names are those of the source.

Key:
[1] = target: T1, eIGPs-6His (Escherichia coli, UniProt P00909); test: IGPs enzyme assay, inhibition by anthranilate; format: biochemical
T1 construct: made in house; host or cells: E. coli BL21
Experimental: (§1) The activity of IGPs from E. coli was measured by monitoring the formation of IGP via absorbance at 278 nm with a molar extinction coefficient value of 5500 M^−1 cm^−1 [24]. Assays were performed in 50 mM HEPPS pH 7.5, 4 mM EDTA at 30° C. with 20-25 μg/mL of purified enzymes in cuvettes. To investigate the effect of anthranilate on the activity of IGPs, the activities were measured in the presence of different concentrations of anthranilate. Unless stated otherwise, the reactions were started by adding 180 μM of the substrate CdRP. The synthesis of CdRP was performed by following the improved method reported by Kirschner et al.. The concentration of the synthesized CdRP in the stock solution was determined by measuring the concentrations of the product IGP with completely converted reactions.
To elucidate the effect of anthranilate on the enzyme activity of eIGPs, the catalytic activity of the isolated eIGPs (eIGPs-6His) was examined in the presence of different concentrations of anthranilate. […] The inhibition constant (IC50, 50% inhibitory concentration) of eIGPs-6His was measured to be about 0.70 mM.

[2] = target: T2, 6His-eIGPs (Escherichia coli, UniProt P00909); test: IGPs enzyme assay, inhibition by anthranilate; format: biochemical; settings: isolated IGPs domain, N-terminal His-tag
T2 construct: made in house; host or cells: E. coli Top10
Experimental: (§3) The activity of IGPs from E. coli was measured by monitoring the formation of IGP via absorbance at 278 nm [23] with a molar extinction coefficient value of 5500 M^−1 cm^−1 [24]. Assays were performed in 50 mM HEPPS pH 7.5, 4 mM EDTA at 30° C. with 20-25 μg/mL of purified enzymes in cuvettes. To investigate the effect of anthranilate on the activity of IGPs, the activities were measured in the presence of different concentrations of anthranilate. Unless stated otherwise, the reactions were started by adding 180 μM of the substrate CdRP. […] The concentration of the synthesized CdRP in the stock solution was determined by measuring the concentrations of the product IGP with completely converted reactions.

[3] = target: T3, 6His-TrpC (Escherichia coli, UniProt P00909); test: IGPs enzyme assay, inhibition by anthranilate; format: biochemical
T3 construct: inserting the PCR products amplified from E. coli S028 with primers EcoRI-6H-trpC and trpC-XbaI; made in house; host or cells: E. coli Top10
Experimental: as §3
In order to figure out whether the PRAi domain has an influence on the inhibition resistance of eIGPs, the effect of anthranilate on the activity of IGPs in the form of eIGPs-PRAi (6His-TrpC) was tested.

[4] = target: T4, eIGPs mutant S60A (Escherichia coli, UniProt P00909, S61A); test: IGPs enzyme assay, inhibition by anthranilate; format: biochemical
T4 construct: made in house; host or cells: E. coli BL21
Experimental: as §1
(§2) […]. Therefore, the effect of anthranilate on the activity of this mutants was not investigated. […] […].

[5] = target: T5, eIGPs mutant S60G (Escherichia coli, UniProt P00909, S61G); test: IGPs enzyme assay, inhibition by anthranilate; format: biochemical; settings: read-out: activity of mutant S60G inhibited
T5 construct: made in house; host or cells: E. coli BL21
Experimental: as §1, §2

[6] = target: T6, ScTrpC (Saccharomyces cerevisiae, UniProt P00937); test: Effect of anthranilate on IGPs activity of TrpC; format: biochemical; settings: FIG. 7
T6 sequence (P00937 1-484): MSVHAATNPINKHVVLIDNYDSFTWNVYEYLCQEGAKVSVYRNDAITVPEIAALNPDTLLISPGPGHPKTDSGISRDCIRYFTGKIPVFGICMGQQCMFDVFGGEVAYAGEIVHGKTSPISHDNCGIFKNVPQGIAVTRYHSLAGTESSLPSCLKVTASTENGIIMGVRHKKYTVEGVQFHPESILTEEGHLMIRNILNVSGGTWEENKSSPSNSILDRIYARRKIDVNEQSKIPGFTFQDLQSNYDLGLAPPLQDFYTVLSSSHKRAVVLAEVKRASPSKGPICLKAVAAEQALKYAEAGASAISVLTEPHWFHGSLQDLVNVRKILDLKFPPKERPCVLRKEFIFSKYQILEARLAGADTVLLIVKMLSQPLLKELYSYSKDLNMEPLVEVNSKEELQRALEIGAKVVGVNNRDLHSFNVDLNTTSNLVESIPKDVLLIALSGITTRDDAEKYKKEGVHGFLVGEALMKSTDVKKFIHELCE

[7] = target: AgTrpC (Aspergillus niger, UniProt P05328); test: Effect of anthranilate on IGPs activity of TrpC; format: biochemical; settings: FIG. 7
[8] = target: T7, ScIGPs (ScTrpC without anthranilate synthase II domain) (Saccharomyces cerevisiae, UniProt P00937); test: Effect of anthranilate on IGPs activity; format: biochemical; settings: anthranilate synthase II domain removed, FIG. 8
T7 construct: ScIGPs=ScTrpC without anthranilate synthase II domain
T7 sequence (P00937 215-484 limits assumed): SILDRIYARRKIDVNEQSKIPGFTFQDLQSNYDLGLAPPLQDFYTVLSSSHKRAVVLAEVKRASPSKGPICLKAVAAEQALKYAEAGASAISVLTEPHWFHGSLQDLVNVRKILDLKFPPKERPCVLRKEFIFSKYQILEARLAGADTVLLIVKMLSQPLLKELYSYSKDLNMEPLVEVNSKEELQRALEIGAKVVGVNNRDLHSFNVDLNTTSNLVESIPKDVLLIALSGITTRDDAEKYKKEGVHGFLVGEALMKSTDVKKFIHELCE
Text: FIG. 8. Effects of anthranilate on the activities of ScTrpC and ScIGPs (ScIGPs=ScTrpC without anthranilate synthase II domain).

[9] = Michaelis constants of 6His-TrpC without and with anthranilate; format: biochemical, Escherichia coli
Experimental: as §1
To identify the mechanism of the inhibition of eIGPs by anthranilate, the effect of the inhibitor on the Michaelis constants of eIGPs was investigated with 6His-TrpC. Various concentration of CdRP (from 2.6 to 260 μM) were used when the reactions carried out in the absence of anthranilate and in the presence of 0.5 mM anthranilate, respectively. […] It is somewhat consistent with the fact that anthranilate has a distinguished binding site from the catalytic site based on the crystal structure analysis.

[10] = Specific activities and kinetic constants of TrpC WT and TrpC QVFQ; format: biochemical, Escherichia coli
Experimental: as §1

[11] = Enzyme assay of wild-type and mutant eIGPs (specific activity); format: biochemical, Escherichia coli; settings: for activity relative to the wild-type enzyme: 18 μM CdRP, absence of anthranilate; for anthranilate resistance / sensitivity compared with wild-type eIGPs (in words): FIG. 3; for specific activity compared with wild type in the presence of anthranilate: more than 0.1 mM anthranilate, 180 μM CdRP
Experimental: as §1, §2

[12] = SDS-PAGE analysis, data not shown
[13] = two-domain form, reference [31]; cited from earlier work

T4 sequence (P00909 2-260 S61A): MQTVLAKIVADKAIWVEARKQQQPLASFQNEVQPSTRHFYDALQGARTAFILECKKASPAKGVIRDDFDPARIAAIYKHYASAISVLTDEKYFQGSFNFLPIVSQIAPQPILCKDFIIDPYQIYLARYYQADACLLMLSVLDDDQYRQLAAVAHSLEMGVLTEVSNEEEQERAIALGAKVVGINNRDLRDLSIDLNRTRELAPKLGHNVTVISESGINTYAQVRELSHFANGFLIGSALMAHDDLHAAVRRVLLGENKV
T5 sequence (P00909 2-260 S61G): as the sequence (P00909 2-260 S61A) above, with A60G counted along it
Chain of AgTrpC (P05328 other isoform, or with tags, fused parts or gaps with the stated changes): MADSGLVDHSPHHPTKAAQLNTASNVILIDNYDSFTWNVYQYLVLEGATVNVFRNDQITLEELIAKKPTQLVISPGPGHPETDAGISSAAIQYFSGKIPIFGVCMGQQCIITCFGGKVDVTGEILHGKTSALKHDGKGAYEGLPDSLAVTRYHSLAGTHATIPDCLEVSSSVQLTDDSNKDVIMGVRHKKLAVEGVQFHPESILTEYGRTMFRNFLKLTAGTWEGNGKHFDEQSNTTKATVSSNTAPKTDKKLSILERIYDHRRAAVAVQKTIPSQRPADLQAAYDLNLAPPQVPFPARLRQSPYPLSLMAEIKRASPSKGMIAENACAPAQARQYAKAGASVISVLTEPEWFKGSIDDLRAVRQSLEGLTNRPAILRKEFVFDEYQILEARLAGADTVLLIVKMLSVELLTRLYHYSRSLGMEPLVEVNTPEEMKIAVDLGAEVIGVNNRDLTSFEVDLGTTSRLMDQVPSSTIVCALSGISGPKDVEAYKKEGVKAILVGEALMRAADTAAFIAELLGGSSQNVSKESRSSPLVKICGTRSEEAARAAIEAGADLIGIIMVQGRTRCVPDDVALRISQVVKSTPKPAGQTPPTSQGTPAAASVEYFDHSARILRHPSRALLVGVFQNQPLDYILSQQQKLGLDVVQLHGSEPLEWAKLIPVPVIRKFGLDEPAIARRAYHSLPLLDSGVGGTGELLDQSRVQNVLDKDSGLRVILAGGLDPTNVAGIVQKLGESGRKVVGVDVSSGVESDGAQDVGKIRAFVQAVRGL

Nc1ccccc1C(=O)O [anthranilate, 2-Aminobenzoic acid]
IC50 ([1]; 180 μM CdRP, 30° C., pH 7.5, read-out: inhibition constant (IC50, 50% inhibitory concentration) of eIGPs-6His): ~700 µM | inhibition at 500 µM ([1]; 0.5 mM anthranilate, read-out: activity of eIGPs inhibited): 46% | IC50 [2]: ~400 µM | mechanism of inhibition ([3]; Lineweaver-Burk, CdRP 2.6 to 260 μM, 0 vs 0.5 mM anthranilate): noncompetitive inhibitor | IC50 ([3]; eIGPs-PRAi two-domain form): ~1.3 mM | IC50 [4]: ~2 mM | inhibition at 2000 µM ([4]; read-out: activity of mutant S60A inhibited): 46% | inhibition at 2000 µM [5]: 20% | regulation of ScTrpC activity by anthranilate [6]: activated | regulation of AgTrpC activity by anthranilate [7]: activated | regulation of ScIGPs activity by anthranilate [8]: no activation was observed

B1: 6His-TrpC: E. coli TrpC, two-domain form, 6His-tag at the N-terminus (protein, UniProt P00909 1-453, looked up)
Tryptophan biosynthesis …: MMQTVLAKIVADKAIWVEARKQQQPLASFQNEVQPSTRHFYDALQGARTAFILECKKASPSKGVIRDDFDPARIAAIYKHYASAISVLTDEKYFQGSFNFLPIVSQIAPQPILCKDFIIDPYQIYLARYYQADACLLMLSVLDDDQYRQLAAVAHSLEMGVLTEVSNEEEQERAIALGAKVVGINNRDLRDLSIDLNRTRELAPKLGHNVTVISESGINTYAQVRELSHFANGFLIGSALMAHDDLHAAVRRVLLGENKVCGLTRGQDAKAAYDAGAIYGGLIFVATSPRCVNVEQAQEVMAAAPLQYVGVFRNHDIADVVDKAKVLSLAAVQLHGNEEQLYIDTLREALPAHVAIWKALSVGETLPAREFQHVDKYVLDNGQGGSGQRFDWSLLNGQSLGNVLLAGGLGADNCVEAAQTGCAGLDFNSAVESQPGIKDARLLASVFQTLRAY
modifications: N-terminal His6 tag
notes: E. coli TrpC, two-domain form, 6His-tag at the N-terminus
Km ([9]; 0.5 mM anthranilate): 1530 nM | Vmax ([9]; 0.5 mM anthranilate): 2.63 µmol/min/mg | Km ([9]; no anthranilate): 1570 nM | Vmax ([9]; no anthranilate): 3.64 µmol/min/mg

B2: QVFQ: E. coli TrpC variant S58Q, P59V, S60F, K61Q, SEQ ID NO: 30 (protein)
chain: MQTVLAKIVADKAIWVEARKQQQPLASFQNEVQPSTRHFYDALQGARTAFILECKKAQVFQGVIRDDFDPARIAAIYKHYASAISVLTDEKYFQGSFNFLPIVSQIAPQPILCKDFIIDPYQIYLARYYQADACLLMLSVLDDDQYRQLAAVAHSLEMGVLTEVSNEEEQERAIALGAKVVGINNRDLRDLSIDLNRTRELAPKLGHNVTVISESGINTYAQVRELSHFANGFLIGSALMAHDDLHAAVRRVLLGENKVCGLTRGQDAKAAYDAGAIYGGLIFVATSPRCVNVEQAQEVMAAAPLQYVGVFRNHDIADVVDKAKVLSLAAVQLHGNEEQLYIDTLREALPAHVAIWKALSVGETLPAREFQHVDKYVLDNGQGGSGQRFDWSLLNGQSLGNVLLAGGLGADNCVEAAQTGCAGLDFNSAVESQPGIKDARLLASVFQTLRAY
modifications: EcTrpC S58Q P59V S60F K61Q
Specific activities ([10]; Anthranilate 0 mM): 1.886 ± 0.067 µmol/min/mg | Specific activities ([10]; Anthranilate 0.5 mM): 1.124 ± 0.074 µmol/min/mg | Specific activities ([10]; Anthranilate 1 mM): 1.152 ± 0.089 µmol/min/mg | Specific activities ([10]; Anthranilate 2 mM): 0.906 ± 0.022 µmol/min/mg | Specific activities ([10]; Anthranilate 3 mM): 0.866 ± 0.016 µmol/min/mg | Km ([10]; apparent, substrate CdRP): 6.14 ± 0.04 µM | kcat ([10]; apparent, substrate CdRP): 0.027 ± 0.001 s⁻¹ | inhibition by anthranilate compared to wildtype TrpC (in words) ([10]; increasing anthranilate concentrations, FIG. 12): significantly less inhibited by anthranilate

B3: S60G (protein)
chain: B2 chain with Q58S, V59P, F60G, Q61K
modifications: EcTrpC S60G
activity relative to the wild-type enzyme [11]: 52% | Specific activity in the absence of anthranilate ([11]; CdRP 18 μM): 1.13 ± 0.02 µmol/min/mg | Specific activity in the absence of anthranilate ([11]; CdRP 60 μM): 1.75 ± 0.03 µmol/min/mg | Specific activity in the absence of anthranilate ([11]; CdRP 180 μM): 1.92 ± 0.02 µmol/min/mg | anthranilate resistance / sensitivity compared with wild-type eIGPs (in words) [11]: significantly improved | Km ranking among WT, S60A, S60G ([11]; from rates of increased absorbance): largest Km | specific activity compared with wild type in the presence of anthranilate [11]: higher than that of the wild type

B4: I8V (protein)
chain: B2 chain with I8V, Q58S, V59P, F60S, Q61K
modifications: EcTrpC I8V
Specific activity in the absence of anthranilate ([11]; CdRP 180 μM): 0.90 ± 0.03 µmol/min/mg | anthranilate resistance / sensitivity compared with wild-type eIGPs (in words) [11]: slightly increased | solubility of the expressed protein (in words) [12]: poorer solubility than the wild-type eIGPs

B5: L188F (protein)
chain: B2 chain with Q58S, V59P, F60S, Q61K, L188F
modifications: EcTrpC L188F
Specific activity in the absence of anthranilate ([11]; CdRP 180 μM): 1.04 ± 0.02 µmol/min/mg | anthranilate resistance / sensitivity compared with wild-type eIGPs (in words) [11]: slightly increased

B6: S60A: E. coli IGPs mutant S60A, SEQ ID NO: 3 (protein)
chain: B2 chain with Q58S, V59P, F60A, Q61K
modifications: EcTrpC S60A
activity relative to the wild-type enzyme [11]: 74% | Specific activity in the absence of anthranilate ([11]; CdRP 18 μM): 1.60 ± 0.03 µmol/min/mg | Specific activity in the absence of anthranilate ([11]; CdRP 60 μM): 2.05 ± 0.06 µmol/min/mg | Specific activity in the absence of anthranilate ([11]; CdRP 180 μM): 2.13 ± 0.01 µmol/min/mg | anthranilate resistance / sensitivity compared with wild-type eIGPs (in words) [11]: significantly improved | specific activity compared with wild type in the presence of anthranilate [11]: higher than that of the wild type | efficiency (Kcat/Km) relative to the wild-type enzyme [13]: about 30%
